Results on nine sequences are retold here after the supplement of paper PMC11246515.

A short description of this data set: total protein half-life in vivo (active degradation + dilution); higher = more stable protein.
[1] abbreviates: E. coli NCM3722 delta-clpP delta-lon delta-hslV, growth: N-lim chemostat, doubling time 6 h.
Setting [2] is: E. coli NCM3722 delta-smpB, growth: N-lim chemostat, doubling time 6 h.
Where [3] appears, read: wild type E. coli NCM3722, growth: C-lim chemostat, doubling time 6 h.
The mark [4] stands for this setting: wild type E. coli NCM3722, growth: C-lim chemostat, doubling time 12 h.
The mark [5] stands for this setting: wild type E. coli NCM3722, growth: N-lim chemostat, doubling time 12 h.
Setting [6] is: wild type E. coli NCM3722, growth: P-lim chemostat, doubling time 12 h.
The mark [7] stands for this setting: E. coli NCM3722 delta-clpP, growth: N-lim chemostat, doubling time 6 h.
[8] abbreviates: wild type E. coli NCM3722, growth: N-lim chemostat, doubling time 6 h.
The mark [9] stands for this setting: wild type E. coli NCM3722, growth: P-lim chemostat, doubling time 6 h.
The mark [10] stands for this setting: wild type E. coli NCM3722, growth: C-lim chemostat, doubling time 3 h.
The mark [11] stands for this setting: E. coli NCM3722 delta-hslV, growth: N-lim chemostat, doubling time 6 h.
Setting [12] is: E. coli NCM3722 delta-lon, growth: N-lim chemostat, doubling time 6 h.

± gives the standard deviation of the averaged measurements.

As for “MKIHTTEALMKAEISRRSLMKTSALGSLALASSAFTLPFSQMVRAAEAPVEEKAVWSSCTVNCGSRCLLRLHVKDDTVYWVESDTTGDDVYGNHQVRACLRGRSIRRRMNHPDRLKYPMKRVGKRGEGKFERISWDEALDTISDNLRRILKDYGNEAVHVLYGTGVDGGNITNSNVPYRLMNSCGGFLSRYGSYSTAQISAAMSYMFGANDGNSPDDIANTKLVVMFGNNPAETRMSGGGVTYYVEQARERSNARMIVIDPRYNDTAAGREDEWLPIRPGTDGALACAIAWVLITENMVDQPFLDKYCVGYDEKTLPANAPRNAHYKAYILGEGPDGIAKTPEWAAKITSIPAEKIIQLAREIGSAKPAYICQGWGPQRHSNGEQTSRAIAMLSVLTGNVGINGGNSGVREGSWDLGVEWFPMLENPVKTQISVFTWTDAIDHGTEMTATRDGVRGKEKLDVPIKFLWCYASNTLINQHGDINHTHEVLQDDSKCEMIVGIDHFMTASAKYCDILLPDLMPTEQEDLISHESAGNMGYVILAQPATSAKFERKPIYWMLSEVAKRLGPDVYQTFTEGRSQHEWIKYLHAKTKERNPEMPDYEEMKTTGIFKKKCPEEHYVAFRAFREDPQANPLKTPSGKIEIYSERLAKIADTWELKKDEIIHPLPAYTPGFDGWDDPLRKTYPLQLTGFHYKARTHSSYGNIDVLQQACPQEVWINPIDAQARGIRHGDTVRVFNNNGEMLIAAKVTPRILPGVTAIGQGAWLKADMFGDRVDHGGSINILTSHRPSPLAKGNPSHSNLVQIEKV”, the “total protein half-life in vivo” value came to 6.47 ± 2.1 h under setting [1]; 4.94 h under setting [2]; 4.9 h under setting [3]; 13.9 h under setting [4]; 3.57 h under setting [5]; 3.5 h under setting [6].
For the sequence “MHRILAEKSVNITELRKNPAKYFIDQPVAVLSNNRPAGYLLSASAFEALMDMLAEQEEKKPIKARFRPSAARLEEITRRAEQYLNDMTDDDFNDFKE”, the “total protein half-life in vivo” value under setting [1] was found to be 6.12 ± 0.86 h, the “total protein half-life in vivo” value under setting [7] came to 3.91 h and the “total protein half-life in vivo” value under setting [6] amounted to 4.58 h.
Consider “MELYREYPAWLIFLRRTYAVAAGVLALPFMLFWKDRARFYSYLHRVWSKTSDKPVWMDQAEKATGDFY [P0AAU2]”, for which the “total protein half-life in vivo” value by setting is: under setting [1], 2.55 ± 0.61 h; under setting [2], 1.38 ± 0.15 h; under setting [4], 3.9 h; under setting [8], 2.33 h; under setting [5], 3.85 h; under setting [9], 0.733 h. In addition, the “total protein half-life in vivo” value under setting [6] stood at 3.35 ± 1.6 h.
In the case of “MIRLAPLITADVDTTTLPGGKASDAAQDFLALLSEALAGETTTDKAAPQLLVATDKPTTKGEPLISDIVSDAQQANLLIPVDETPPVINDEQSTSTPLTTAQTMALAAVADKNTTKDEKADDLNEDVTASLSALFAMLPGFDNTPKVTDAPSTVLPTEKPTLFTKLTSEQLTTAQPDDAPGTPAQPLTPLVAEAQSKAEVISTPSPVTAAASPLITPHQTQPLPTVAAPVLSAPLGSHEWQQSLSQHISLFTRQGQQSAELRLHPQDLGEVQISLKVDDNQAQIQMVSPHQHVRAALEAALPVLRTQLAESGIQLGQSNISGESFSGQQQAASQQQQSQRTANHEPLAGEDDDTLPVPVSLQGRVTGNSGVDIFA”, the “total protein half-life in vivo” value stood at 2.6 h under setting [1], 0.287 h under setting [10] and 0.34 h under setting [3].
“MKLHHRMLRHFIAASVIVLTSSFLIFELVASDRAMSAYLRYIVQKADSSFLYDKYQNQSIAAHVMRALAAEQSEVSPEQRRAICEAFESANNTHGLNLTAHKYPGLRGTLQTASTDCDTIVEAAALLPAFDQAVEGNRHQDDYGSGLGMAEEKFHYYLDLNDRYVYFYEPVNVEYFAMNNWSFLQSGSIGIDRKDIEKVFTGRTVLSSIYQDQRTKQNVMSLLTPVYVAGQLKGIVLLDINKNNLRNIFYTHDRPLLWRFLNVTLTDTDSGRDIIINQSEDNLFQYVSYVHDLPGGIRVSLSIDILYFITSSWKSVLFWILTALILLNMVRMHFRLYQNVSRENISDAMTGLYNRKILTPELEQRLQKLVQSGSSVMFIAIDMDKLKQINDTLGHQEGDLAITLLAQAIKQSIRKSDYAIRLGGDEFCIILVDSTPQIAAQLPERIEKRLQHIAPQKEIGFSSGIYAMKENDTLHDAYKASDERLYVNKQNKNSRS”: the “total protein half-life in vivo” value was 6.76 ± 0.25 h under setting [1]; 6.49 ± 0.48 h under setting [7]; 6.32 ± 0.99 h under setting [11]; 6.49 ± 0.3 h under setting [12]; 5.84 ± 0.39 h under setting [2]; 3.35 ± 0.26 h under setting [10]. Also, the “total protein half-life in vivo” value is, setting by setting: under setting [8], 6.57 ± 0.21 h; under setting [5], 14.1 ± 0.84 h; under setting [9], 6.25 ± 0.64 h; under setting [6], 12.9 ± 0.26 h.
With “MIVFSSLQIRRGVRVLLDNATATINPGQKVGLVGKNGCGKSTLLALLKNEISADGGSYTFPGSWQLAWVNQETPALPQAALEYVIDGDREYRQLEAQLHDANERNDGHAIATIHGKLDAIDAWSIRSRAASLLHGLGFSNEQLERPVSDFSGGWRMRLNLAQALICRSDLLLLDEPTNHLDLDAVIWLEKWLKSYQGTLILISHDRDFLDPIVDKIIHIEQQSMFEYTGNYSSFEVQRATRLAQQQAMYESQQERVAHLQSYIDRFRAKATKAKQAQSRIKMLERMELIAPAHVDNPFRFSFRAPESLPNPLLKMEKVSAGYGDRIILDSIKLNLVPGSRIGLLGRNGAGKSTLIKLLAGELAPVSGEIGLAKGIKLGYFAQHQLEYLRADESPIQHLARLAPQELEQKLRDYLGGFGFQGDKVTEETRRFSGGEKARLVLALIVWQRPNLLLLDEPTNHLDLDMRQALTEALIEFEGALVVVSHDRHLLRSTTDDLYLVHDRKVEPFDGDLEDYQQWLSDVQKQENQTDEAPKENANSAQARKDQKRREAELRAQTQPLRKEIARLEKEMEKLNAQLAQAEEKLGDSELYDQSRKAELTACLQQQASAKSGLEECEMAWLEAQEQLEQMLLEGQSN”, the “total protein half-life in vivo” value by setting is: under setting [1], 6.02 ± 0.54 h; under setting [7], 4.89 ± 0.15 h; under setting [11], 2.697 ± 0.016 h; under setting [12], 3.16 ± 0.084 h; under setting [2], 2.95 ± 0.13 h; under setting [10], 2.39 ± 0.12 h. For the same sequence, the “total protein half-life in vivo” value was 4.3 ± 0.48 h under setting [3]; 6.5 ± 0.051 h under setting [4]; 2.95 ± 0.15 h under setting [8]; 3.94 ± 0.5 h under setting [5]; 3.58 ± 0.25 h under setting [9]; 6.36 ± 0.25 h under setting [6].
For “MAIILGIDPGSRVTGYGVIRQVGRQLSYLGSGCIRTKVDDLPSRLKLIYAGVTEIITQFQPDYFAIEQVFMAKNADSALKLGQARGVAIVAAVNQELPVFEYAARQVKQTVVGIGSAEKSQVQHMVRTLLKLPANPQADAADALAIAITHCHVSQNAMQMSESRLNLARGRLR [P0A814]”, the “total protein half-life in vivo” value reads like this: under setting [1], 4.93 ± 0.29 h; under setting [7], 3.57 ± 0.066 h; under setting [11], 3.29 ± 0.05 h; under setting [12], 3.46 ± 0.7 h; under setting [2], 4.18 ± 1.7 h; under setting [10], 2.26 ± 0.1 h. Also, the “total protein half-life in vivo” value was found to be 4.34 ± 0.17 h under setting [3]; 6.6 ± 0.2 h under setting [4]; 3.56 ± 0.17 h under setting [8]; 5.21 ± 0.39 h under setting [5]; 6.3836 ± 0.0059 h under setting [6].
As to “MDSFPAIEIDKVKAWDFRLANINTSECLNVAYGVDANYLDGVGVSITSIVLNNRHINLDFYIIADVYNDGFFQKIAKLAEQNQLRITLYRINTDKLQCLPCTQVWSRAMYFRLFAFQLLGLTLDRLLYLDADVVCKGDISQLLHLGLNGAVAAVVKDVEPMQEKAVSRLSDPELLGQYFNSGVVYLDLKKWADAKLTEKALSILMSKDNVYKYPDQDVMNVLLKGMTLFLPREYNTIYTIKSELKDKTHQNYKKLITESTLLIHYTGATKPWHKWAIYPSVKYYKIALENSPWKDDSPRDAKSIIEFKKRYKHLLVQHHYISGIIAGVCYLCRKYYRK”, the “total protein half-life in vivo” value is, setting by setting: under setting [1], 5.91 ± 0.13 h; under setting [7], 5.65 ± 0.22 h; under setting [11], 5.85 ± 1.1 h; under setting [12], 4.71 ± 0.095 h; under setting [2], 5.17 ± 0.11 h; under setting [10], 2.93 ± 0.14 h. Also, the “total protein half-life in vivo” value under setting [3] came to 5.19 ± 0.48 h; the “total protein half-life in vivo” value under setting [4] was found to be 9.31 ± 1.8 h; the “total protein half-life in vivo” value under setting [8] turned out to be 6.04 ± 1.2 h; the “total protein half-life in vivo” value under setting [5] stood at 10.3 ± 2.3 h; the “total protein half-life in vivo” value under setting [9] stood at 5.29 ± 0.38 h; the “total protein half-life in vivo” value under setting [6] was 9.86 ± 0.11 h.
Take “MIKKIFALPVIEQISPVLSRRKLDELDLIVVDHPQVKASFALQGAHLLSWKPAGEEEVLWLSNNTPFKNGVAIRGGVPVCWPWFGPAAQQGLPAHGFARNLPWTLKSHHEDADGVALTFELTQSEETKKFWPHDFTLLAHFRVGKTCEIDLESHGEFETTSALHTYFNVGDIAKVSVSGLGDRFIDKVNDAKENVLTDGIQTFPDRTDRVYLNPQDCSVINDEALNRIIAVGHQHHLNVVGWNPGPALSISMGDMPDDGYKTFVCVETAYASETQKVTKEKPAHLAQSIRVAKR”: the “total protein half-life in vivo” value worked out at 5.78 ± 0.46 h under setting [1]; 5.24 ± 0.6 h under setting [7]; 6.17 ± 1.1 h under setting [11]; 5.11 ± 0.53 h under setting [12]; 5.67 ± 0.29 h under setting [2]; 13 ± 1.6 h under setting [4]. For the same sequence, the “total protein half-life in vivo” value by setting is: under setting [8], 5.42 ± 0.3 h; under setting [5], 13.7 ± 2.5 h; under setting [9], 5.72 ± 0.72 h; under setting [6], 12.9 ± 1.8 h.
